Reference: patent US20200115702A1

Molecular target: BAFF-Fc (Sino Biological) (human) (UniProt Q9Y275)
Assay: cell-based or functional assay

IC50, inhibition of BAFF bioactivity in the mouse splenocyte assay: 121 nM
Substance: endogenous BAFF receptor, BR3 (from UniProt Q96RJ3 1-78)
